Data on three molecules can be found in patent US20210122824A1 (ADAGENE, published 2021).

For assay [1], the target named is T1, human PD-L1-Fc fusion protein (Sino Biological Cat #10084-H02H) (human, UniProt Q9NZQ7 19-239).
T1 construct: bought; not shown: Fc part of the bought fusion
The assay can be described thus: competition ELISA, PD1-Fc (1 ug/mL) coated, biotinylated PD-L1-Fc mixed with antibody, HRP neutravidin; blocked ligand PD1-Fc. On the technique in general: In an ELISA, binding on a coated surface is turned into a signal by an enzyme label.

Assay [2] has as its target T2, rhesus PD-L1 expressed on HEK293F cells (rhesus, UniProt F6VEW6 19-290).
T2 construct: whole, on cells
As to the kind of experiment: flow cytometry, HEK293F cells transiently expressing the target, 100 nM antibody, PE anti-human Fc; Mean (PE-A against FITC-A, GFP surrogate). Background: A flow cytometer gives signals particle by particle.

Assay [3] addresses T3, human PD1 expressed on HEK293F cells (human, UniProt Q15116 25-288).
T3 construct: whole, on cells
The assay is described as above.

Assay [4] deals with T4, human TIM3 expressed on HEK293F cells (human, UniProt Q8TDQ0 22-301).
T4 construct: whole, on cells
The assay can be described thus: flow cytometry on transfected HEK293F cells.

The target of assay [5] is T3, human PD1 expressed on HEK293F cells. As to the kind of experiment: flow cytometry on transfected HEK293F cells.
Assay [6] deals with T5, human CTLA4 expressed on HEK293F cells (human, UniProt P16410 36-223).
T5 construct: whole, on cells
The assay can be described thus: flow cytometry on transfected HEK293F cells.

For assay [7], the target named is T6, human B7-H3 expressed on HEK293F cells (human, UniProt Q5ZPR3 29-534).
T6 construct: whole, on cells
T6 sequence (looked up): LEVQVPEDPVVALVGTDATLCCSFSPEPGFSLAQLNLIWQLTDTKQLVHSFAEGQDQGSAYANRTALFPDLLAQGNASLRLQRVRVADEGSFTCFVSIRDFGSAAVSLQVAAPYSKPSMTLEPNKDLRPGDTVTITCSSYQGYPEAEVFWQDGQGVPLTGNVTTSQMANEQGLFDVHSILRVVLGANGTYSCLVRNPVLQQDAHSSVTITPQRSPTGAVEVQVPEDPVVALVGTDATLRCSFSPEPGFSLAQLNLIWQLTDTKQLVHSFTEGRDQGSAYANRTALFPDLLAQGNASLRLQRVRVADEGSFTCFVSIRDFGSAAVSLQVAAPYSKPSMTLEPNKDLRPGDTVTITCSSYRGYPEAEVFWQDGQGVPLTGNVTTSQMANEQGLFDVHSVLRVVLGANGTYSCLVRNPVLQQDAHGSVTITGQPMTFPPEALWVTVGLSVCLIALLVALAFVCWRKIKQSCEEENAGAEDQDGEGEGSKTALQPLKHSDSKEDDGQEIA
As to the kind of experiment: flow cytometry on transfected HEK293F cells.

Assay [8] addresses T7, human LAG3 expressed on HEK293F cells (human, UniProt P18627 23-525).
T7 construct: whole, on cells
T7 sequence (looked up): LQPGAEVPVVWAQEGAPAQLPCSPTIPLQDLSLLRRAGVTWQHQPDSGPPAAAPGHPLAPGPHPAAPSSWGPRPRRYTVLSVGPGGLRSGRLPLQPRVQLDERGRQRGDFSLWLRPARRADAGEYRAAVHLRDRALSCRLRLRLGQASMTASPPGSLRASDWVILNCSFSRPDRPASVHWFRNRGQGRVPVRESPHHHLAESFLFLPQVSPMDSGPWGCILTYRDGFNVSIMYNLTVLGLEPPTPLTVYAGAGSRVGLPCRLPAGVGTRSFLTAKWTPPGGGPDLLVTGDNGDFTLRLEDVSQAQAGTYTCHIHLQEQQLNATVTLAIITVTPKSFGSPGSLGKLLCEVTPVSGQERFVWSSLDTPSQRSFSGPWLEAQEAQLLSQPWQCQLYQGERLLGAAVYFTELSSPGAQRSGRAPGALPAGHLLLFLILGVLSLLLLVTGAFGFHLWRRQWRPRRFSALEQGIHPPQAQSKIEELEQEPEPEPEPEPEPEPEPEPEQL
As to the kind of experiment: flow cytometry on transfected HEK293F cells.

Assay [9] has as its target T8, human PD-L1 expressed on cell surface (human, UniProt Q9NZQ7 19-290).
T8 construct: whole, on cells; also called full-length human PD-L1; cell surface PD-L1
As to the kind of experiment: blocking by flow cytometry, HEK293F cells expressing full-length human PD-L1, 100 nM antibody then 100 nM biotinylated PD1-His (blocked ligand), Alexa fluor 633 streptavidin; isotype control panel Q2 35.1%.

Assay [10] addresses T4, human TIM3 expressed on HEK293F cells. The assay can be described thus: flow cytometry, HEK293F cells transiently expressing the target, 100 nM antibody, PE anti-human Fc; Mean (PE-A against FITC-A, GFP surrogate).
Assay [11] has as its target T5, human CTLA4 expressed on HEK293F cells. The description is as above.
Assay [12] has as its target T6, human B7-H3 expressed on HEK293F cells. Described as above.
Assay [13] deals with T7, human LAG3 expressed on HEK293F cells. The description is as above.
Assay [14] deals with mouse PD-L1 (construct not stated) (mouse, UniProt Q9EP73 19-238, limits assumed). The assay can be described thus: SPR (Biacore).
The target in assay [15] is T9, human PD-L1-His6 (Sino Biological #10084-H08H) (human, UniProt Q9NZQ7 19-239).
T9 construct: bought; not shown: His6 tag
The assay can be described thus: SPR (Biacore T200), antibody captured by anti-human Fc, PD-L1-His6 in solution.

For assay [16], the target named is T8, human PD-L1 expressed on cell surface. The assay can be described thus: flow cytometry, HEK293F cells transiently expressing the target, 100 nM antibody, PE anti-human Fc; Mean (PE-A against FITC-A, GFP surrogate).
The target in assay [17] is T10, mouse PD-L1 expressed on HEK293F cells (mouse, UniProt Q9EP73 19-290).
T10 construct: whole, on cells
Described as above.

Assay [18] addresses T2, rhesus PD-L1 expressed on HEK293F cells. The assay can be described thus: flow cytometry on transfected HEK293F cells, 100 nM antibody.

T5 sequence (P16410 36-223): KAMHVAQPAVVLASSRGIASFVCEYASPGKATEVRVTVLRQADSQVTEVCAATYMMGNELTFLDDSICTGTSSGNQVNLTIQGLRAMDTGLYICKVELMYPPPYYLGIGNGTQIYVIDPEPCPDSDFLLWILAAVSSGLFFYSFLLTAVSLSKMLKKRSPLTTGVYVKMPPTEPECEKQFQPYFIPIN
T1 sequence (Q9NZQ7 19-239 limits assumed): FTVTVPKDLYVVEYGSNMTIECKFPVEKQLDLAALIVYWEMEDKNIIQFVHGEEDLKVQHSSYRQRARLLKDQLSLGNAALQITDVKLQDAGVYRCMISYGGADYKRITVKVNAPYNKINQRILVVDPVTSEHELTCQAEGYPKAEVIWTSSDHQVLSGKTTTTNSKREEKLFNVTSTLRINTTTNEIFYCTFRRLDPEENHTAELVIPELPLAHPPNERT
T9 sequence (Q9NZQ7 19-239 limits assumed): as above
T8 sequence (Q9NZQ7 19-290): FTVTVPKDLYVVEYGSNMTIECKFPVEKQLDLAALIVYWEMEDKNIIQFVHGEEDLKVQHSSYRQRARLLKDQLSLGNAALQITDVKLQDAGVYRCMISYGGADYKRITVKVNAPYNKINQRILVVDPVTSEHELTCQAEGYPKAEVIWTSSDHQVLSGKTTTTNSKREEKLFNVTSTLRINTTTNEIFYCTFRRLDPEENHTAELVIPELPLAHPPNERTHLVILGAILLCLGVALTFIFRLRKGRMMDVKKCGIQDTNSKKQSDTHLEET
T3 sequence (Q15116 25-288): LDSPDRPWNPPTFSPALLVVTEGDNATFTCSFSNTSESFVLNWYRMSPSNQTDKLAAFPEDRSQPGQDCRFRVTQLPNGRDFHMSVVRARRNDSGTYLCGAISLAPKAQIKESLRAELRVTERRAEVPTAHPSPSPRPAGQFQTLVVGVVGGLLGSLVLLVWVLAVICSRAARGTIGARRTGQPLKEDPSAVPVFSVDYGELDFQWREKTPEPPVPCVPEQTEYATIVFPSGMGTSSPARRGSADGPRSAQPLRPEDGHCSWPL
T10 sequence (Q9EP73 19-290): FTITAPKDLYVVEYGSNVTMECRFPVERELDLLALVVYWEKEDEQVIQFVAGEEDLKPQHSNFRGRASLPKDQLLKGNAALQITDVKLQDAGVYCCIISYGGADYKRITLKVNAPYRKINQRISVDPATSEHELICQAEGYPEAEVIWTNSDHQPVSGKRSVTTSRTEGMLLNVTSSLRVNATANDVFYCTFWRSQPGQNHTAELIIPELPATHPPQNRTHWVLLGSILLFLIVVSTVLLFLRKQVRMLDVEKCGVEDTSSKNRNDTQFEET
Chain of mouse PD-L1 (construct not stated) (Q9EP73 19-238 limits assumed): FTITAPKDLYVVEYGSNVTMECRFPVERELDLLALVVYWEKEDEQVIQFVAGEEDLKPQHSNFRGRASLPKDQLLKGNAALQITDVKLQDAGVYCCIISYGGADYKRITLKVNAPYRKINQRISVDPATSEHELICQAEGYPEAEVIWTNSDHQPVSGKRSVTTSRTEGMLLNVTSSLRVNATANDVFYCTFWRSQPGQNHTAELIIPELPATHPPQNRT

B1: TY21420 (antibody, V domains shown)
VH: EVQLVESGGGLVQPGGSLRLSCAASGYSISSGYYWGWIRQAPGKGLEWIGIIYPSGGGTNYAQKFQGRVTISRDNSKNTLYLQLNSLRAEDTAVYYCARGGGLGFDYWGQGTLVTVSS
VL: DIQLTQSPSSLSASVGDRVTITCRASQTIPSFLNWYQQKPGKAPKLLIYAASSLQSGVPSRFSGSGSGTDFTLTISSLQPEDFATYYCQHYTSWPRQFTFGQGTKVEIKR
notes: IgG1 (wild type) made from Fab B15016, from HEK293F cells
As to B1, the “IC50 (read off the curve)” value in assay [1] was around 6 nM. The Mean in assay [2] was 164000; in [3] it was 3710; in [10] it was 4660; in [11], 4570; in [12] it was 3780; in assay [13] it was 4630. Moreover, the binding result in assay [4], in [5], in assay [6], in [7] and in [8] was “no binding (tested: 100 nM)” each time. The “Q2 (percent of cells positive for GFP and for the APC signal of PD1-His, antibody present)” value in assay [9] was found to be 1.53%.

B2: TY21418 (antibody, V domains shown)
VH: EVQLVESGGGLVQPGGSLRLSCAASGYTFSNYGIHWVRQAPGKGLEWIGWIYPSGGGTKYAQKFQGRVTISRDNSKNTLYLQLNSLRAEDTAVYYCAREGGGYGYALDYWGQGTLVTVSS
VL: DIQLTQSPSSLSASVGDRVTITCRASQGVSSYLAWYQQKPGKAPKLLIYDASNLETGVPSRFSGSGSGTDFTLTISSLQPEDFATYYCQQYDAWPYTFGQGTKVEIKR
notes: IgG1 (wild type) made from Fab B13002, from HEK293F cells
Broadly, the Kd is the constant that tells how readily two partners part at equilibrium. Read a low Kd as tighter binding. The term koff denotes a measure of how fast the partners let go of each other. A low value points to a long-lived complex. What is called kon is a measure of how fast the partners come together. B2: the binding result in assay [14] was “no binding”; in [4], “no binding (tested: 100 nM)”; in [5], “no binding (tested: 100 nM)”; in [6], “no binding (tested: 100 nM)”; in assay [7], “no binding (tested: 100 nM)”; in [8] it was “no binding (tested: 100 nM)”. The binding result in assay [18] is listed as “binds”. Besides, in assay [1], the “IC50 (read off the curve)” value is around 6 nM. Besides, the affinity in assay [15], expressed as Kd, was 0.399 nM. The same molecule showed a dissociation rate constant (koff) in assay [15] of 0.000179 s⁻¹. In [15], this molecule had a kon of 448000 M⁻¹ s⁻¹. In addition, the Mean in [3] is 2570; in [16] it was 227000; in [17] it was 2470; in assay [10], 2480; in [11], 3460; in assay [13] it was 2830. For the same molecule, the “Q2 (percent of cells positive for GFP and for the APC signal of PD1-His, antibody present)” value in assay [9] stood at 0.29%.

B3: TY21419 (antibody, V domains shown)
VH: EVQLVESGGGLVQPGGSLRLSCAASGYTFSNYGIHWVRQAPGKGLEWIGWIYPSGGGTKYAQKFQGRVTISRDNSKNTLYLQLNSLRAEDTAVYYCAREGGGYGYALDYWGQGTLVTVSS
VL: DIQLTQSPSSLSASVGDRVTITCRASQGISPWLAWYQQKPGKAPKLLIYDASNRATGIPSRFSGSGSGTDFTLTISSLQPEDFATYYCQQYDSWPYTFGQGTKVEIKR
notes: IgG1 (wild type) made from Fab B13004, from HEK293F cells
Take B3: the binding result is “no binding” in [14]; “no binding (tested: 100 nM)” in assay [4]; “no binding (tested: 100 nM)” in assay [5]; “no binding (tested: 100 nM)” in assay [6]; “no binding (tested: 100 nM)” in [7]; “no binding (tested: 100 nM)” in assay [8]. Further, the “IC50 (read off the curve)” value in assay [1] was around 6 nM. In assay [15], this molecule gave a Kd of 0.465 nM. For the same molecule, the koff in [15] worked out at 0.000143 s⁻¹. Besides, the kon in [15] amounted to 307000 M⁻¹ s⁻¹. For the same molecule, the Mean amounted to 201000 in assay [2]; 3110 in assay [3]; 219000 in assay [16]; 2500 in [17]; 2310 in assay [10]; 2330 in assay [11]. Moreover, the Mean in assay [12] came out at 2380; in [13], 3390. Also, the “Q2 (percent of cells positive for GFP and for the APC signal of PD1-His, antibody present)” value in assay [9] came out at 0.58%.
